Assay [1] addresses T1, recombinant SARS-CoV-2 Spike RBD domain, Wuhan (SARS-CoV-2). The assay is described as follows: ELISA on coated RBD. Conditions: remark: other sources report otherwise. In general terms: In an ELISA, binding on a coated surface is turned into a signal by an enzyme label.
Assay [2] addresses T1, recombinant SARS-CoV-2 Spike RBD …. The assay is described as follows: competition ELISA, blocking of RBD binding to ACE2 ectodomain. The conditions noted are these: remark: other sources report otherwise.

B1: SPK002 antibody (parental version Cv2.3194 described in WO 2022/228827) (antibody, V domains shown)
VH: EVQLVESGGGLIQPGGSLRLSCAASGITVTSNYMSWVRQAPGKGLEWVSVIYPGGSTFYADSVKGRFTISRDNSKNTLYLQMNSLRAEDTAVYYCARDLVVYGMDVWGQGTTVTVS
VL: EIVLTQSPGTLSLSPGERATLSCRASQSVSSSYLAWYQQKPGQAPRLLIYGASSRATGIPGRFSGSGSGTDFTLTISRLEPEDFAIYYCQQGVTFGGGTKVEIK
For the molecule B1, the Binding AUC in assay [1] came out at 34. The Blocking % in assay [2] turned out to be 88%.

The values above are taken from patent publication US12281155.
